Measured values: publication PMC3281842 (2012)
Square brackets hold non-standard residues; d marks the D form. Ends that are not written are not given here. Arg(Me2a) = CN(C)C(=N)NCCC[C@H](N)C(=O)O

Biological target: TDRD3 (aa 520–633) (human, UniProt Q9H7E2 520-633)
Assay: ITC

Kd: > 500 µM
Binder: TG[Arg(Me2a)]ARARA [PIWIL1_R4me2a peptide (TGRme2aARARA)]
